These results are taken from paper PMC7429481, “Signalling, trafficking and glucoregulatory properties of glucagon‐like peptide‐1 receptor agonists exendin‐4 and lixisenatide” (British Journal of Pharmacology, 2020).

The target in the assay is human SNAP‐GLP‐1 receptor (HEK293‐SNAP‐GLP‐1 receptor cells) (human) (UniProt P43220). Briefly: FRET or BRET. Background: Bioluminescence resonance energy transfer reports proximity on the nanometre scale.
human SNAP‐GLP‐1 receptor (HEK293‐SNAP‐GLP‐1 receptor cells) (human), sequence (P43220 24-463): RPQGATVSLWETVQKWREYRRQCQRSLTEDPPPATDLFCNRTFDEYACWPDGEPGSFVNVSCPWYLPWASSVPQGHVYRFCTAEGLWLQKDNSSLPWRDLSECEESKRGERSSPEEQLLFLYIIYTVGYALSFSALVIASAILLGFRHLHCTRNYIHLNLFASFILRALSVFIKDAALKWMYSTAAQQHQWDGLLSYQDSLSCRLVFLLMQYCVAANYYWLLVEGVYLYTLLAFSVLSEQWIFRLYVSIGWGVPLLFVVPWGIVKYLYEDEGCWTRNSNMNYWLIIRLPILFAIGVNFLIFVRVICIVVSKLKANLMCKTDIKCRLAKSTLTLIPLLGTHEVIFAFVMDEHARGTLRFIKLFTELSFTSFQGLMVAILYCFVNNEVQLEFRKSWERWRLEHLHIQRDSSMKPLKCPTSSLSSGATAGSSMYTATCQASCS

In turn, lixisenatide (peptide) gave a log KD of -9.
“exendin‐4 (from UniProt P26349 48-87) (peptide)” gave a log KD of -9.2.
